# Experimental data taken from US7999070B2, “Process for screening of a binding peptide specific for specific RNA and RNA binding peptides therefrom” (priority 2005, dated 2011).
# Where no end group is shown, it is not given here.
# Columns and labels:
# [1] = Circular dichroism (CD) of the selected peptide, percentage of alpha-helix; assay type: physicochemical; details: for degree of alpha-helices (percentage of alpha-helix, fn): CD at 20° C., 222 nm; for degree of alpha-helices, comparison with Rev peptide (number in parenthesis): relative to Rev peptide (natural RRE RNA binding peptide)
# Description: CD was measured at 20° C. by using JASCO model J715 spectropolarimeter. Scanning of 190-260 nm wave length was performed three times with 1 nm of bandwidth, 0.5 nm of datapitch and 100 nm/min speed. The results of the scanning were averaged to obtain CD data. Background spectrum was measured to correct the basic spectrum, and CD signals were converted into mean residue ellipticity [Q]. The percentage of alpha-helix (fn) is calculated by the following formula. [Q]=Qobs[MRW/(101c)]
# MRW=mean residue weight (molecular weight is divided by the number of peptide bond), I=length of passway (cm), C=concentration (mg/mL). fn=([Q]222−[Q]coil)/([Q]helix−[Q]coil)
# [Q]222=mean residue ellipticity (deg cm2 mol−1) at 222 nm, [Q]helix=ellipticity of authentic helical peptide, [Q]coil=ellipticity of authentic random coil peptide, n=number of amino acid, t=° C.
# RRE RNA of HIV-1 = test: Binding capacity of peptide to RRE RNA, fluorescence anisotropy in competition with CRP probe
# Description: 100 ml of RRE RNA solution was prepared at the concentration of […], which stood at 65° C. for 10 minutes. Then, the solution was cooled down slowly at room temperature to induce folding. Peptide solution was prepared respectively at the concentration of […] and 1.0 mM, and both of them were maintained at 0° C. […] CRP (5-carboxytetramethylrhodamine labeled paromomycin) was prepared as a probe. Buffer solution was prepared by mixing 140 mM NaCl, 5 mM KCl, 1 mM MgCl2 and 20 mM HEPES (N-2-Hydroxyethylpiperazine-N′-2-Ethanesulfonic Acid, pH 7.4). Fluorescence anisotropy was measured with AMINCO-Bowman Series Luminescence Spectrometer at 20° C. 10 nM CRP was added to […] of buffer solution, to which RRE RNA was added in order to combine CRP with RNA. At that time, anisotropy was increased. Thereafter, peptide competitively binding to CRP was added and the changes of anisotropy were measured. The binding capacity to RRE RNA of the peptide was determined by the KaleidaGraph as follows; [Peptide]=Kd(Amax−A)/[Kd(A−A0)+1]*[RNA]−Kd(A−A0)/(Amax−A)[CRP]0(A−A0)/(Amax−A0)
# [Peptide] indicates the concentration of the peptide, [RNA] indicates the concentration of RNA and [CRP] indicates the concentration of CRP. A is the value of fluorescence anisotropy of a sample, Amax is the value of totally bound tracer and A0 is the value of totally free tracer.
# TAR RNA = test: Binding capacity to TAR RNA by fluorescence anisotropy
# Description: (§1) The detailed investigation on the specificity of peptide 16 (SEQ. ID. No 16) was not performed in the present invention, however the binding capacity to TAR RNA and tRNA, general peptides having stem-loop, was tested by fluorescence anisotropy.
# tRNA = test: Binding capacity to tRNA by fluorescence anisotropy
# Description: as §1
Substance,"degree of alpha-helices (percentage of alpha-helix, fn) [1]","degree of alpha-helices, comparison with Rev peptide (number in parenthesis) [1]",Kd (RRE RNA of HIV-1) [nM],binding capacity to TAR RNA (TAR RNA),binding capacity to tRNA (tRNA)
"LK*KLLKLLK*KLLK*LKG (LK(dimethyl)KLLKLLK(dimethyl)KLLK(dimethyl)LKG-NH2) [peptide 33, K* is dimethylated lysine]",7.5,1.1,,,
"LKK*LLKLLK*KLLKLKG (LKK(dimethyl)LLKLLK(dimethyl)KLLKLKG-NH2) [peptide 16, K* is dimethylated lysine]",13,2.0,< 1,hundreds and tens,hundreds and tens
"LKK*LLKLLKKLLK*LKG (LKK(dimethyl)LLKLLKKLLK(dimethyl)LKG-NH2) [peptide 18, K* is dimethylated lysine]",4.9,0.71,,,
"LKK*LLKLLKKLLKLKG (LKK(dimethyl)LLKLLKKLLKLKG-NH2) [peptide 3, K* is dimethylated lysine]",4.9,0.72,,,
"LKKLLKLLK*KLLK*LKG (LKKLLKLLK(dimethyl)KLLK(dimethyl)LKG-NH2) [peptide 25, K* is dimethylated lysine]",6.6,1.0,,,
"LKKLLKLLKKLLK*LKG (LKKLLKLLKKLLK(dimethyl)LKG-NH2) [peptide 7, K* is dimethylated lysine]",2.7,0.40,,,
LKKLLKLLKKLLKLKG [peptide 1],15,2.2,,,
